This is an account of results in patent publication US10618965 (dated 2020).

Broadly, the Kd is the equilibrium constant for the complex coming apart.

Substitutions are numbered along the chain they refer to.

B1: IL6R-PD082 (antibody)
chain 1: QVQLQESGPGLVKPSETLSLTCAVSGHSISHDHAWSWVRQPPGEGLEWIGFISYSGITNYNPSLQGRVTISRDNSKNTLYLQMNSLRAEDTAVYYCARSLARTTAMDYWGEGTLVTVSSASTKGPSVFPLAPSSKSTSGGTAALGCLVKDYFPEPVTVSWNSGALTSGVHTFPAVLQSSGLYSLSSVVTVPSSSLGTQTYICNVNHKPSNTKVDKKVEPKSCDKTHTCPPCPAPELLGFDSVFLFPPKPKDTLYISRTPEVTCVVVDVSHEDPEVKFNWYVDGVEVHNAKTKPREEQYNSTYRVVSVLTVLHQDWLNGKEYKCKVSNKALPAPIEKTISKAKGQPREPQVYTLPPSRDELTKNQVSLTCLVKGFYPSDIAVEWESNGQPENNYKTTPPVLDSDGSFFLYSKLTVDKSRWQQGNVFSCSVMHEALHYHYTQKSLSLSP
chain 2: DIQMTQSPSSLSASVGDRVTITCRASQDISSYLNWYQQKPGKAPKLLIYYTSRLHSGVPSRFSGSGSGTDFTFTISSLQPEDIATYYCQQGNTLPYTFGQGTKVEIK
B2: IL6R-PD086 (antibody)
chain 1: B1 chain 1 with F239L
chain 2: B1 chain 2
B3: IL6R-PD079 (antibody)
chain 1: B1 chain 1 with F239A
chain 2: B1 chain 2
B4: IL6R-BP149 (antibody)
chain 1: B1 chain 1 with E235D, L236Y, F239D, Y254M, Y298D, K328A, A332K, Y436N, K441E
chain 2: B1 chain 2
B5: IL6R-BP131 (antibody)
chain 1: B1 chain 1 with E235D, F239D, Y254M, A332K, Y436N, K441E
chain 2: B1 chain 2
B6: IL6R-BP087 (antibody)
chain 1: B1 chain 1 with L236Y, F239G, Y254M, A332K, Y436N, K441E
chain 2: B1 chain 2
B7: IL6R-BP089 (antibody)
chain 1: B1 chain 1 with L236Y, F239G, Y254M, K328A, A332K, Y436N, K441E
chain 2: B1 chain 2
B8: IL6R-BP152 (antibody)
chain 1: B1 chain 1 with E235D, L236Y, F239D, Y254M, Y298D, K328A, A332K, Y436N, K441E
chain 2: B1 chain 2
B9: IL6R-BP178 (antibody)
chain 1: B1 chain 1 with E235D, F239D, Y254M, P273G, A332K, Y436N, K441E
chain 2: B1 chain 2
B10: IL6R-BP144 (antibody)
chain 1: B1 chain 1 with F239D, Y254M, K328A, Y436N, K441E
chain 2: B1 chain 2
B11: IL6R-PD081 (antibody)
chain 1: B1 chain 1 with F239E
chain 2: B1 chain 2
B12: IL6R-PD042 (antibody)
chain 1: B1 chain 1 with L236W, F239G
chain 2: B1 chain 2
B13: IL6R-PD094 (antibody)
chain 1: B1 chain 1 with F239W
chain 2: B1 chain 2
B14: IL6R-PD080 (antibody)
chain 1: B1 chain 1 with F239A
chain 2: B1 chain 2
B15: IL6R-PD095 (antibody)
chain 1: B1 chain 1 with F239Y
chain 2: B1 chain 2
B16: IL6R-PD097 (antibody)
chain 1: B1 chain 1 with F239G, S241D
chain 2: B1 chain 2
B17: IL6R-PD043 (antibody)
chain 1: B1 chain 1 with L236Y, F239G
chain 2: B1 chain 2
B18: F1327 (antibody)
chain 1: B1 chain 1 with L236A, L237A, F239G, D240P, T252V, N299A, T309Q, V310P, Q313A, Y438V
chain 2: not shown
B19: F1333 (antibody)
chain 1: B1 chain 1 with L237R, G238R, F239G, D240P, S241K, Y438V
chain 2: not shown
B20: F1317 (antibody)
chain 1: B1 chain 1 with F239G, D240P, S241K, P331K, Y438V
chain 2: not shown
B21: F1324 (antibody)
chain 1: B1 chain 1 with L236A, L237A, F239G, D240P, Y438V
chain 2: not shown
B22: F890 (antibody)
chain 1: B1 chain 1 with F239G, D240P, Y438V
chain 2: not shown
B23: F1315 (antibody)
chain 1: B1 chain 1 with F239K, D240P, S241K, Y438V
chain 2: not shown
B24: F1356 (antibody)
chain 1: B1 chain 1 with G238R, F239G, D240P, L330R, Y438V
chain 2: not shown
B25: F1325 (antibody)
chain 1: B1 chain 1 with L236A, L237A, F239G, D240P, N299A, Y438V
chain 2: not shown
B26: F938 (antibody)
chain 1: B1 chain 1 with L237K, F239G, D240P, S241K, Y438V
chain 2: not shown
B27: F1316 (antibody)
chain 1: B1 chain 1 with F239R, D240P, S241K, Y438V
chain 2: not shown
B28: F1318 (antibody)
chain 1: B1 chain 1 with F239G, D240P, S241K, P331R, Y438V
chain 2: not shown

Chain of human FcgRIIIa(V) (human) (chain, as listed by the source): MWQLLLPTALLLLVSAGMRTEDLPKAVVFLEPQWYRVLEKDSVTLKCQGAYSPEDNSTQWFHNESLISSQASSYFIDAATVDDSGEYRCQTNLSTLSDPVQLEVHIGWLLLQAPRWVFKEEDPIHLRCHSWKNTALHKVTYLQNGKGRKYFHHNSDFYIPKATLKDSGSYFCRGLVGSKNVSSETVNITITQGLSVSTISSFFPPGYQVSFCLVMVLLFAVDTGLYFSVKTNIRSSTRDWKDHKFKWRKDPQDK

One assay addresses human FcgRIIIa(V) (human). In words: SPR. Background: Surface plasmon resonance follows binding to a sensor surface in real time, without labels.
B1 returned a dissociation constant Kd of 43000 nM.
On the same count and under the same terms, the same measure for B2: 41000 nM.
Same read-out and setting: the result for B3 reads 37000 nM.

The target of another assay is T1, human FcgRIIa(R) (human).
T1 chain: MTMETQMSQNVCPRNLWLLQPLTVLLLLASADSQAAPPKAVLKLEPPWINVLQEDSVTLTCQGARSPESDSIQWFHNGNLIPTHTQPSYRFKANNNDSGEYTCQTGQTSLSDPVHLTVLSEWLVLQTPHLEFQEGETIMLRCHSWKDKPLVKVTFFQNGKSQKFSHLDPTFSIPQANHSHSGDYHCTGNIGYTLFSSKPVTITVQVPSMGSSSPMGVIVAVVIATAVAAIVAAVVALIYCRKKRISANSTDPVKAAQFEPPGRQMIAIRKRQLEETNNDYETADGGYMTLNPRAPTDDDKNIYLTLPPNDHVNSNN
Description: SPR.
As to B4, the Kd came out at 1400 nM. This lies in the single-digit micromolar range.
In turn, B5 came in with a dissociation constant Kd of 3100 nM. Against the preceding molecule, the Kd is about 2.2-fold higher.
The same measure, in the same setting: the same measure for B6: 9700 nM.
In turn, B7 returned a dissociation constant (Kd) of 6400 nM. Compared with the last molecule, the Kd is about 1.5-fold lower.
On the same count and under the same terms, the result for B8 reads 810 nM; that for B9, 930 nM; that for B10, 2900 nM.

In another assay the target is human FcgRIa (human). Description: SPR.
Chain of human FcgRIa (human) (chain, as listed by the source): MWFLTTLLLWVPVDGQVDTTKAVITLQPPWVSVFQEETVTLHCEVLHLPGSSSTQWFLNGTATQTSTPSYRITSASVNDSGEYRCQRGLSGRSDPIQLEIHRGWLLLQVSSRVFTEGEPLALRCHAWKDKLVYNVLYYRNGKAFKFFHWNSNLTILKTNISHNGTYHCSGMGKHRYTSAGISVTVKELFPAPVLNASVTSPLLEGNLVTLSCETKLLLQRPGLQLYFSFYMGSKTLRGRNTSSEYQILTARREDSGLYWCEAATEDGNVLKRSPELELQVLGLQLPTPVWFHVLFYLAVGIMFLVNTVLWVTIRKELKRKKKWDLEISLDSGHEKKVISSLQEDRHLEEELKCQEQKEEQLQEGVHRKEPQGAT
In the case of B4, binding was put at a Kd of 120 nM.
Still for that read-out and setting: the same measure for B5: 120 nM; for B6: 30 nM; for B7: 63 nM.
Same read-out and setting: the result for B8 reads 73 nM.
Same read-out and setting: the result for B9 reads 43 nM.
Take B10: binding was put at a Kd of 3700 nM.

Another assay concerns the target T1, human FcgRIIa(R). In words: SPR. The source holds these as a separate data set.
For the molecule B11, binding was characterised by a dissociation constant (Kd) of 38000 nM.
Same read-out and setting: the result for B12 reads 16000 nM; that for B1, 14000 nM; that for B13, 7200 nM.
The same measure, in the same setting: the same measure for B14: 21000 nM; for B15: 7900 nM.
The same measure, in the same setting: the same measure for B16: 3500 nM; for B2: 18000 nM; for B17: 26000 nM.
With B3, the Kd came to 32000 nM.

For another assay, the target named is human FcRn (with beta2-microglobulin) (human). In words: SPR, pH 7.0.
Chain of human FcRn (with beta2-microglobulin) (human) (chain, as listed by the source, chain 1 of 2): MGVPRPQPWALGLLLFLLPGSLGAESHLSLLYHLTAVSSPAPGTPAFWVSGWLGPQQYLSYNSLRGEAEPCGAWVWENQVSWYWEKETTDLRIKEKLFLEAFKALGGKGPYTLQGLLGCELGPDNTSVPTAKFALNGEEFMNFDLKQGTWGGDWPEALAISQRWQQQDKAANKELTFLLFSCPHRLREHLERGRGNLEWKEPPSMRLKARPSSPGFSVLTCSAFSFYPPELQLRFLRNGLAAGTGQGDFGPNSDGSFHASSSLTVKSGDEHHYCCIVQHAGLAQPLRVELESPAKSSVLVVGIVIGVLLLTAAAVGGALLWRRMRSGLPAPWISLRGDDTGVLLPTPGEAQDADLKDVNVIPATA
Chain of human FcRn (with beta2-microglobulin) (human) (chain, as listed by the source, chain 2 of 2): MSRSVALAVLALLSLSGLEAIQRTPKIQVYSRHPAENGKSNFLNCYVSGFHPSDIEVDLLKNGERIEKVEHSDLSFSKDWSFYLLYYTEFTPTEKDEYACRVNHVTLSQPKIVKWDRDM
Molecule B18 had an equilibrium dissociation constant (Kd) of 14 nM.
On the same count and under the same terms, the result for B19 reads 123 nM; that for B20, 138 nM.
Still for that read-out and setting: the result for B21 reads 132 nM; that for B22, 107 nM.
On the same count and under the same terms, the same measure for B23: 152 nM.
The molecule B24 returned a Kd of 158 nM.
Same read-out and setting: the result for B25 reads 213 nM; that for B26, 161 nM.
The same measure, in the same setting: the same measure for B27: 149 nM; for B28: 143 nM.

A further assay deals with T2, human FcgRIIb (human).
T2 chain: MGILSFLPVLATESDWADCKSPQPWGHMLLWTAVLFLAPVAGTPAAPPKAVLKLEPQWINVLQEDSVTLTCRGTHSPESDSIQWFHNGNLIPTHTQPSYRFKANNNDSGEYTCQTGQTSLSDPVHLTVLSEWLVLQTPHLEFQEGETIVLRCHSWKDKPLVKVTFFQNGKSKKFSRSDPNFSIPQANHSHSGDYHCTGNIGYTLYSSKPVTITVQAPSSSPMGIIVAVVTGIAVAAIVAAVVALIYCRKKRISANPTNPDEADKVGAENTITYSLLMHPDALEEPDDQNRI
Description: SPR.
Molecule B11 showed a Kd of 3600 nM.
B12 registered an equilibrium dissociation constant (Kd) of 2000 nM.
Still for that read-out and setting: the same measure for B1: 3400 nM; for B13: 2300 nM.
The same measure, in the same setting: the same measure for B14: 2000 nM.
The same measure, in the same setting: the same measure for B15: 2300 nM; for B16: 1400 nM.
In the case of B2, the Kd turned out to be 2600 nM.
On the same count and under the same terms, the same measure for B17: 1600 nM; for B3: 3000 nM.

Another assay addresses human FcgRIa (human). In words: SPR. This is another data set of the same source.
Turning to B11, the Kd was 340 nM. This counts as sub-micromolar.
The same measure, in the same setting: the result for B12 reads 63 nM; that for B1, 52 nM.
Still for that read-out and setting: the same measure for B13: 36 nM; for B14: 140 nM; for B15: 93 nM.
On the same count and under the same terms, the same measure for B16: 4.9 nM; for B2: 120 nM; for B17: 75 nM.
Regarding B3, the Kd came to 140 nM. This Kd is about 1.9-fold higher than that of the molecule before.

The target of a further assay is T2, human FcgRIIb. In words: SPR. This is another data set of the same source.
B4 gave a Kd of 93 nM. This lies in the double-digit nanomolar range.
On the same count and under the same terms, the same measure for B5: 250 nM; for B6: 610 nM.
B7 showed a Kd of 390 nM.
Still for that read-out and setting: the same measure for B8: 41 nM.
Same read-out and setting: the same measure for B9: 51 nM; for B10: 790 nM.
